Five molecules from patent US20200306373A1 (Hoffmann-La Roche, published 2020) can be followed below.

The target in experiment [1] is T1, human ICOS (human, UniProt Q9Y6W8 21-199).
T1 sequence: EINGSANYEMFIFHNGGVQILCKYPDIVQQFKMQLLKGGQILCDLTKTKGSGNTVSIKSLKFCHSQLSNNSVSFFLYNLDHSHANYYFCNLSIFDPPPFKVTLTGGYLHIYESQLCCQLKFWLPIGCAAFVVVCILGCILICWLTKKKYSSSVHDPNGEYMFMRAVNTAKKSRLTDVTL
The experiment in a line: cell-based or functional assay.

Experiment [2] deals with T2, human fibroblast activating protein (huFAP) (human, UniProt Q12884 1-760).
T2 construct: Expressed on NIH/3T3-huFAP clone 19 cells; also called human FAP; hFAP
The experiment in a line: flow cytometry on NIH/3T3-huFAP clone 19 cells. As for the experimental part:
(§1) This cell line was generated by the transfection of the mouse embryonic fibroblast NIH/3T3 cell line (ATCC CRL-1658) with the expression vector pETR4921 to express huFAP under […] Puromycin selection.
(§2) The staining was fixed for 20 min at 4° C. in the dark, using 75 μl of 1% PFA in FACS buffer per well. Fluorescence was analyzed by FACS using a FACS Fortessa (Software FACS Diva). Binding curves were obtained using GraphPadPrism6 and are shown in FIGS. 6A-6C and 7A-7B, respectively.

Experiment [3] concerns the target T1, human ICOS. In words: flow cytometry, activated human PBMCs, ICOS on CD4+ T cells. A general note: A flow cytometer gives signals particle by particle.
The target of experiment [4] is T1, human ICOS. The experiment in a line: flow cytometry, activated human PBMCs, ICOS on CD8+ T cells.
For experiment [5], the target named is T2, human fibroblast activating protein …. The experiment in a line: flow cytometry on NIH/3T3-huFAP clone 19 cells (human FAP), PE anti-human secondary, median fluorescence intensity. As for the experimental part:
as §1, §2

For experiment [6], the target named is T3, murine ICOS Fc(kih) Avi tag (murine, Avi tag, captured on a streptavidin chip).
T3 construct: also called recombinant murine ICOS Fc(kih)
In words: SPR, Biacore T200, 25 C, murine ICOS Fc(kih) on streptavidin chip, antibody injected 1000-31.25 nM, 1:1 Langmuir. The procedure: Surface plasmon resonance experiments were performed on a Biacore T200 at 25° C. with HBS-EP as running buffer (0.01 M HEPES pH 7.4, 0.15 M NaCl, 0.005% (v/v) Surfactant P20 (GE Healthcare)).
The immobilization level was approximately 600 RU. […] The dissociation phase was monitored for 500 s and triggered by switching from the sample solution to HBS-EP. The chip surface was regenerated after every cycle using one injection of 10 mM Glycine pH 3.0 for 60 s.
The affinity constants were derived from the kinetic rate constants by fitting to a 1:1 Langmuir binding using the BIAeval software (GE Healthcare).

T3 sequence (chain, as listed by the source limits assumed, chain 1 of 2): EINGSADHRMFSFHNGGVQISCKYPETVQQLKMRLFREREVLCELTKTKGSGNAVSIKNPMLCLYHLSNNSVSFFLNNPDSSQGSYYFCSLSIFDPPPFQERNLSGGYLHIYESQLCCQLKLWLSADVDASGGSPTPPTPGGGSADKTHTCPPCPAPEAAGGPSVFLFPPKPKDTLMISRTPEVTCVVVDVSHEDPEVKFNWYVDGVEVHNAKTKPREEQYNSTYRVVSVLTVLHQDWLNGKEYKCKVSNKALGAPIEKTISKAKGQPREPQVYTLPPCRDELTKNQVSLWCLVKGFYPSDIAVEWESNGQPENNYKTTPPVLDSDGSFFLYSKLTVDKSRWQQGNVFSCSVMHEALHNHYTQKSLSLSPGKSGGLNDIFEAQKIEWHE
T3 sequence (chain, as listed by the source limits assumed, chain 2 of 2): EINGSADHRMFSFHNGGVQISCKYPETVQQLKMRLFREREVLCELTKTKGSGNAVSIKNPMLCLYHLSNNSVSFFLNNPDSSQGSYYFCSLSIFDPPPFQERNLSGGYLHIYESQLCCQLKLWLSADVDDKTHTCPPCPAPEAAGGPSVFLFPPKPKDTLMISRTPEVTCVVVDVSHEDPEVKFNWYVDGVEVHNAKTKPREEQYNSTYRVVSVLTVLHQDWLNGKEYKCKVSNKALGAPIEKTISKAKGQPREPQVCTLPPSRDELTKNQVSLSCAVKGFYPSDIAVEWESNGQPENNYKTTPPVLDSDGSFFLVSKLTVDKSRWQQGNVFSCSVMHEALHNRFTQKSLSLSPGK

B1: FAP-ICOS_2+1, huIgG1 P329G LALA, bivalent ICOS (JMAb136), monovalent FAP (4B9) (bispecific antibody)
heavy 1: not shown
heavy 2: not shown
light: DIQMTQSPSSVSASVGDRVTITCRASQGISRLLAWYQQKPGKAPKLLIYVASSLQSGVPSRFSGSGSGTDFTLTISSLQPEDFATYYCQQANSFPWTFGQGTKVEIKRTVAAPSVFIFPPSDRKLKSGTASVVCLLNNFYPREAKVQWKVDNALQSGNSQESVTEQDSKDSTYSLSSTLTLSKADYEKHKVYACEVTHQGLSSPVTKSFNRGEC
notes: Human IgG1 P329G LALA, knob-into-hole; also called ICOS-FAP 2+1; ICOS(JMab136)-FAP(4B9) 2 + 1
Consider B1, for which, in experiment [1], the “Fold increase vs TCB only at 200 pM CEA-ICOS (% CD69^+CD4^+), Donor 1 (D1)” value was determined as 2.66 fold; the “Fold increase vs TCB only at 200 pM CEA-ICOS (% CD69^+CD4^+), Donor 2 (D2)” value is 1.38 fold; the “Fold increase vs TCB only at 1000 pM CEA-ICOS (% CD69^+CD4^+), Donor 1 (D1)” value was determined as 2.66 fold; the “Fold increase vs TCB only at 1000 pM CEA-ICOS (% CD69^+CD4^+), Donor 2 (D2)” value amounted to 1.96 fold. Besides, it took 5.19 nM to reach a half-maximal effect in experiment [2] (EC50). This molecule yielded an EC50 in experiment [3] of 10.7 nM. This molecule had an EC50 in experiment [4] of 14.4 nM.

B2: FAP-ICOS_1+1_HT, huIgG1 P329G LALA, monovalent ICOS (JMAb136), monovalent FAP (4B9) c-terminal fused of the heavy chain C region (bispecific antibody)
heavy 1: not shown
heavy 2: DKTHTCPPCPAPEAAGGPSVFLFPPKPKDTLMISRTPEVTCVVVDVSHEDPEVKFNWYVDGVEVHNAKTKPREEQYNSTYRVVSVLTVLHQDWLNGKEYKCKVSNKALGAPIEKTISKAKGQPREPQVCTLPPSRDELTKNQVSLSCAVKGFYPSDIAVEWESNGQPENNYKTTPPVLDSDGSFFLVSKLTVDKSRWQQGNVFSCSVMHEALHNHYTQKSLSLSPGGGGGSGGGGSGGGGSGGGGSEIVLTQSPGTLSLSPGERATLSCRASQSVTSSYLAWYQQKPGQAPRLLINVGSRRATGIPDRFSGSGSGTDFTLTISRLEPEDFAVYYCQQGIMLPPTFGQGTKVEIK
light: B1 light
notes: Human IgG1 P329G LALA, knob-into-hole; 4B9 VH and VL fused to the C-termini of the two Fc chains; also called ICOS-FAP 1+1 HT; 1+1 head-to-tail
As to B2, the EC50 was found to be 6.73 nM in experiment [2], 42.6 nM in experiment [3] and 56.4 nM in experiment [4].

B3: DP47-ICOS_2+1, huIgG1 P329G LALA, bivalent ICOS (JMAb136), monovalent DP47 (bispecific antibody)
heavy 1: not shown
heavy 2: not shown
light: B1 light
notes: Untargeted control, human IgG1 P329G LALA, bivalent for ICOS; also called ICOS-DP47 control molecule; untargeted DP47-ICOS
In the case of B3, the EC50 in experiment [3] amounted to 9.99 nM; in experiment [4], 12.4 nM. Also, in experiment [5], the binding result is listed as “no binding (tested: about 120000 pM)”.

B4: DP47-ICOS_1+1, huIgG1 P329G LALA, monovalent ICOS (JMAb136), monovalent DP47 (bispecific antibody)
heavy 1: not shown
light 1: B1 light
heavy 2: not shown
light 2: not shown
notes: Untargeted control, human IgG1 P329G LALA; also called ICOS-DP47 control molecule; untargeted DP47-ICOS
As for B4, the EC50 in experiment [3] was found to be 19.9 nM; in experiment [4] it was 25.7 nM. The binding result in experiment [5] is reported as “no binding (tested: about 120000 pM)”.

B5: anti-ICOS 16E09 IgG1 P329G LALA antibody (antibody, V domains shown)
VH: EVQLVQSGAEVKKPGESLKISCKGSGYSFTSYWIGWVRQMPGKGLEWMGIIYPGDSDTRYSPSFQGQVTISADKSISTAYLQWSSLKASDTAMYYCARSSGPYGLYLDYWGQGTLVTVSS
VL: not shown
notes: also called phage-derived ICOS-specific antibody 16E09
In experiment [6], B5 yielded a Kd of 180 nM, a koff of 0.0192 s⁻¹ and a kon of 144000 M⁻¹ s⁻¹.

As a reminder, the EC50 is the concentration giving half of the maximal effect. A high value points to lower potency in that assay. As a reminder, the Kd is the equilibrium constant for the complex coming apart. A high value points to weaker binding. The term koff denotes a measure of how fast the partners let go of each other. Higher therefore signals fast dissociation. A word on the kon: it is the second-order rate constant of association. High values mean faster complex formation, low ones slower complex formation.
